{"source": "paper PMC7302350", "biological_target": "DOT1L (1-416), recombinant (Homo sapiens) (UniProt Q8TEK3)", "sequence (Q8TEK3 1-416)": "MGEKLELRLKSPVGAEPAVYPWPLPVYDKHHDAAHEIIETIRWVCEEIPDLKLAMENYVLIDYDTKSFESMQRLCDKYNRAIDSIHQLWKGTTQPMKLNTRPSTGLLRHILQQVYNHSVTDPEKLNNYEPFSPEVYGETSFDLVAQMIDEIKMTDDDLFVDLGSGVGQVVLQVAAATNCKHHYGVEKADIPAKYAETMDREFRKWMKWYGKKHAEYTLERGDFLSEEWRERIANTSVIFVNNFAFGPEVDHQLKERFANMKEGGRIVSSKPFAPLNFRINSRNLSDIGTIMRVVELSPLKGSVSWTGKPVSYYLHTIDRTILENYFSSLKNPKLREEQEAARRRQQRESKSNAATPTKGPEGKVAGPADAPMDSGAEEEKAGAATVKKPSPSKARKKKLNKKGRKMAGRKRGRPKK", "test": "EMSA", "details": "EMSA: 10 mM HEPES pH 7.3, 20 mM KCl, 1 mM MgCl2, 1 mM DTT, 5% glycerol, 100 ug/mL tRNA, room temperature 30 min; pull-down: Pierce Magnetic RNA-Protein …"}
{"sequence": "GGGACAUUCGAGCAGCUGCUCUGGAGAAACAGCAGGAUCUACGGAAGUUUGUACCCACCGCCUCGCCUGCAGCCUCGGGAGUCUCAACCCAAGCCGGCCCGGCCUUGUAGCCCAGAGCAGCAAAGCCACAGCAGGCAACGCGAGCUAACGCGGGUCGCGCGGAGGUCGGGAGCCCAGGCGGCGGAGGCGGCGGCGGCGCAGUUAUUCCCGGGUGACUCUGGGGACUCGUGCAGAUGGGGGACGCCUCCGGCCACGCACUUGGAGCCA [LAMP5-AS1 503-764]", "values": [{"measurement": "binding", "result": "binds"}]}
